Assay results reported in the supplement of paper PMC5998384.

Legend:
HeLa Kyoto [1] = test: solubility in G1/S (NP-40 vs SDS abundance) (log2 ratio); higher = more soluble; settings: cell cycle stage: G1/S
HeLa Kyoto [2] = test: solubility change mitosis vs G1/S (difference of NP-40 vs SDS log2 ratios) (log2 ratio difference); higher = more soluble in mitosis
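Throughout, for solubility change mitosis vs G1/S (difference of NP-40 vs SDS log2 ratios): synchronized HeLa Kyoto cells (double thymidine block for G1/S, nocodazole release for mitosis), protein amounts in NP-40 versus SDS lysates quantified by mass spectrometry, three biological replicates.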
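Throughout, for solubility in G1/S (NP-40 vs SDS abundance): HeLa Kyoto cells arrested at G1/S by double thymidine block, proteins quantified by TMT10plex mass spectrometry in mild NP-40 versus SDS extracts, three biological replicates.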

Substance	solubility in G1/S (log2) (HeLa Kyoto [1])	solubility change mitosis (log2) (HeLa Kyoto [2])
MED13L	0.0923	-0.119
MEEVREGHALGGGMEADGPASLQELPPSPRSPSPPPSPPPLPSPPSLPSPAAPEAPELPEPAQPSEAHARQLLLEEWGPLSGGLELPQRLTWKLLLLRRPLYRNLLRSPNPEGINIYEPAPPTGPTQRPLETLGNFRGWYIRTEKLQQNQSWTVKQQCVDLLAEGLWEELLDDEQPAITVMDWFEDSRLDACVYELHVWLLAADRRTVIAQHHVAPRTSGRGPPGRWVQVSHVFRHYGPGVRFIHFLHKAKNRMEPGGLRRTRVTDSSVSVQLRE [NCCRP1]	0.178	-0.0982
MEEVTTCSFNSPLFRQEDDRGITYRIPALLYIPPTHTFLAFAEKRSTRRDEDALHLVLRRGLRIGQLVQWGPLKPLMEATLPGHRTMNPCPVWEQKSGCVFLFFICVRGHVTERQQIVSGRNAARLCFIYSQDAGCSWSEVRDLTEEVIGSELKHWATFAVGPGHGIQLQSGRLVIPAYTYYIPSWFFCFQLPCKTRPHSLMIYSDDLGVTWHHGRLIRPMVTVECEVAEVTGRAGHPVLYCSARTPNRCRAEALSTDHGEGFQRLALSRQLCEPPHGCQGSVVSFRPLEIPHRCQDSSSKDAPTIQQSSPGSSLRLEEEAGTPSESWLLYSHPTSRKQRVDLGIYLNQTPLEAACWSRPWILHCGPCGYSDLAALEEEGLFGCLFECGTKQECEQIAFRLFTHREILSHLQGDCTSPGRNPSQFKSN [NEU3]	-0.0555	-0.0358
MEGRPPPEGRPPPRPRTGRAPRGRRRAVFAAVLHWSHITHLFENDRHFSHLSTLEREMAFRTEMGLYYSYFKTIVEAPSFLNGVWMIMNDKLTEYPLVINTLKRFNLYPEVILASWYRIYTKIMDLIGIQTKICWTVTRGEGLSPIESCEGLGDPACFYVAVIFILNGLMMALFFIYGTYLSGSRLGGLVTVLCFFFNHGECTRVMWTPPLRESFSYPFLVLQMLLVTHILRATKLYRGSLIALCISNVFFMLPWQFAQFVLLTQIASLFAVYVVGYIDICKLRKIIYIHMISLALCFVLMFGNSMLLTSYYASSLVIIWGILAMKPHFLKINVSELSLWVIQGCFWLFGTVILKYLTSKIFGIADDAHIGNLLTSKFFSYKDFDTLLYTCAAEFDFMEKETPLRYTKTLLLPVVLVVFVAIVRKIISDMWGVLAKQQTHVRKHQFDHGELVYHALQLLAYTALGILIMRLKLFLTPHMCVMASLICSRQLFGWLFCKVHPGAIVFAILAAMSIQGSANLQTQWNIVGEFSNLPQEELIEWIKYSTKPDAVFAGAMPTMASVKLSALRPIVNHPHYEDAGLRARTKIVYSMYSRKAAEEVKRELIKLKVNYYILEESWCVRRSKPGCSMPEIWDVEDPANAGKTPLCNLLVKDSKPHFTTVFQNSVYKVLEVVKE [DPY19L1]	-0.264	0.0231
MEKRLQEAQLYKEEGNQRYREGKYRDAVSRYHRALLQLRGLDPSLPSPLPNLGPQGPALTPEQENILHTTQTDCYNNLAACLLQMEPVNYERVREYSQKVLERQPDNAKALYRAGVAFFHLQDYDQARHYLLAAVNRQPKDANVRRYLQLTQSELSSYHRKEKQLYLGMFG [TTC9C]	0.247	0.459
MEKSWMLWNFVERWLIALASWSWALCRISLLPLIVTFHLYGGIILLLLIFISIAGILYKFQDVLLYFPEQPSSSRLYVPMPTGIPHENIFIRTKDGIRLNLILIRYTGDNSPYSPTIIYFHGNAGNIGHRLPNALLMLVNLKVNLLLVDYRGYGKSEGEASEEGLYLDSEAVLDYVMTRPDLDKTKIFLFGRSLGGAVAIHLASENSHRISAIMVENTFLSIPHMASTLFSFFPMRYLPLWCYKNKFLSYRKISQCRMPSLFISGLSDQLIPPVMMKQLYELSPSRTKRLAIFPDGTHNDTWQCQGYFTALEQFIKEVVKSHSPEEMAKTSSNVTII [ABHD13]	-0.091	-0.176
MELPAVNLKVILLGHWLLTTWGCIVFSGSYAWANFTILALGVWAVAQRDSIDAISMFLGGLLATIFLDIVHISIFYPRVSLTDTGRFGVGMAILSLLLKPLSCCFVYHMYRERGGELLVHTGFLGSSQDRSAYQTIDSAEAPADPFAVPEGRSQDARGY [AGTRAP]	0.0387	-0.217
MENCSAASTFLTDSLELELGTEWCKPPYFSCAVDNRGGGKHFSGESYLCSGALKRLILNLDPLPTNFEEDTLEIFGIQWVTETALVNSSRELFHLFRQQLYNLETLLQSSCDFGKVSTLHCKADNIRQQCVLFLHYVKVFIFRYLKVQNAESHVPVHPYEALEAQLPSVLIDELHGLLLYIGHLSELPSVNIGAFVNQNQIKLFPPSWHLLHLHLDIHWLVLEILYMLGEKLKQVVYGHQFMNLASDNLTNISLFEEHCETLLCDLISLSLNRYDKVRSSESLMSDQCPCLCIKELWVLLIHLLDHRSKWFVSESFWNWLNKLLKTLLEKSSDRRRSSMPVIQSRDPLGFSWWIITHVASFYKFDRHGVPDEMRKVESNWNFVEELLKKSISVQGVILEEQLRMYLHCCLTLCDFWEPNIAIVTILWEYYSKNLNSSFSISWLPFKGLANTMKSPLSMLEMVKTCCCDKQDQELYKSSSSYTIFLCILAKVVKKAMKSNGPHPWKQVKGRIYSKFHQKRMEELTEVGLQNFFSLFLLLAAVAEVEDVASHVLDLLNFLKPAFVTSQRALIWKGHMAFLLMYAQKNLDIGVLAEKFSCAFREKAKEFLVSKNEEMVQRQTIWTLLSIYIDGVQEVFETSYCLYPSHEKLLNDGFSMLLRACRESELRTVLSFLQAVLARIRSMHQQLCQELQRDNVDLFVQSSLSAKERHLAAVASALWRHFFSFLKSQRMSQVVPFSQLADAAADFTLLAMDMPSTAPSDFQPQPVISIIQLFGWDDIICPQVVARYLSHVLQNSTLCEALSHSGYVSFQALTVRSWIRCVLQMYIKNLSGPDDLLIDKNLEEAVEKEYMKQLVKLTRLLFNLSEVKSIFSKAQVEYLSISEDPKKALVRFFEAVGVTYGNVQTLSDKSAMVTKSLEYLGEVLKYIKPYLGKKVFSAGLQLTYGMMGILVKSWAQIFATSKAQKLLFRIIDCLLLPHAVLQQEKELPAPMLSAIQKSLPLYLQGMCIVCCQSQNPNAYLNQLLGNVIEQYIGRFLPASPYVSDLGQHPVLLALRNTATIPPISSLKKCIVQVIRKSYLEYKGSSPPPRLASILAFILQLFKETNTDIYEVELLLPGILKCLVLVSEPQVKRLATENLQYMVKACQVGSEEEPSSQLTSVFRQFIQDYGMRYYYQVYSILETVATLDQQVVIHLISTLTQSLKDSEQKWGLGRNIAQREAYSKLLSHLGQMGQDEMQRLENDNT [MMS22L]	-0.523	-0.109
MEPKVAELKQKIEDTLCPFGFEVYPFQVAWYNELLPPAFHLPLPGPTLAFLVLSTPAMFDRALKPFLQSCHLRMLTDPVDQCVAYHLGRVRESLPELQIEIIADYEVHPNRRPKILAQTAAHVAGAAYYYQRQDVEADPWGNQRISGVCIHPRFGGWFAIRGVVLLPGIEVPDLPPRKPHDCVPTRADRIALLEGFNFHWRDWTYRDAVTPQERYSEEQKAYFSTPPAQRLALLGLAQPSEKPSSPSPDLPFTTPAPKKPGNPSRARSWLSPRVSPPASPGP [MMACHC]	0.0435	0.0886
METAPKPGKDVPPKKDKLQTKRKKPRRYWEEETVPTTAGASPGPPRNKKNRELRPQRPKNAYILKKSRISKKPQVPKKPREWKNPESQRGLSGTQDPFPGPAPVPVEVVQKFCRIDKSRKLPHSKAKTRSRLEVAEAEEEETSIKAARSELLLAEEPGFLEGEDGEDTAKICQADIVEAVDIASAAKHFDLNLRQFGPYRLNYSRTGRHLAFGGRRGHVAALDWVTKKLMCEINVMEAVRDIRFLHSEALLAVAQNRWLHIYDNQGIELHCIRRCDRVTRLEFLPFHFLLATASETGFLTYLDVSVGKIVAALNARAGRLDVMSQNPYNAVIHLGHSNGTVSLWSPAMKEPLAKILCHRGGVRAVAVDSTGTYMATSGLDHQLKIFDLRGTYQPLSTRTLPHGAGHLAFSQRGLLVAGMGDVVNIWAGQGKASPPSLEQPYLTHRLSGPVHGLQFCPFEDVLGVGHTGGITSMLVPGAGEPNFDGLESNPYRSRKQRQEWEVKALLEKVPAELICLDPRALAEVDVISLEQGKKEQIERLGYDPQAKAPFQPKPKQKGRSSTASLVKRKRKVMDEEHRDKVRQSLQQQHHKEAKAKPTGARPSALDRFVR [WDR46]	-1.25	0.592
